Measurements published in IntAct's records for PubMed 19234114.

B1: Ferroportin (Mus musculus), Q9JHI9 (parent)
chain: MTKARDQTHQEGCCGSLANYLTSAKFLLYLGHSLSTWGDRMWHFAVSVFLVELYGNSLLLTAVYGLVVAGSVLVLGAIIGDWVDKNARLKVAQTSLVVQNVSVILCGIILMMVFLHKNELLTMYHGWVLTVCYILIITIANIANLASTATAITIQRDWIVVVAGENRSRLADMNATIRRIDQLTNILAPMAVGQIMTFGSPVIGCGFISGWNLVSMCVEYFLLWKVYQKTPALAVKAALKVEESELKQLTSPKDTEPKPLEGTHLMGEKDSNIRELECEQEPTCASQMAEPFRTFRDGWVSYYNQPVFLAGMGLAFLYMTVLGFDCITTGYAYTQGLSGSILSILMGASAITGIMGTVAFTWLRRKCGLVRTGLFSGLAQLSCLILCVISVFMPGSPLDLSVSPFEDIRSRFVNVEPVSPTTKIPETVFTTEMHMSNMSNVHEMSTKPIPIVSVSLLFAGVIAARIGLWSFDLTVTQLLQENVIESERGIINGVQNSMNYLLDLLHFIMVILAPNPEAFGLLVLISVSFVAMGHLMYFRFAQKTLGNQIFVCGPDEKEVTDENQPNTSVV

Variants of: B1
Details: with jak2_human JAK2, O60674
jak2_human JAK2, O60674, sequence (O60674 whole entry): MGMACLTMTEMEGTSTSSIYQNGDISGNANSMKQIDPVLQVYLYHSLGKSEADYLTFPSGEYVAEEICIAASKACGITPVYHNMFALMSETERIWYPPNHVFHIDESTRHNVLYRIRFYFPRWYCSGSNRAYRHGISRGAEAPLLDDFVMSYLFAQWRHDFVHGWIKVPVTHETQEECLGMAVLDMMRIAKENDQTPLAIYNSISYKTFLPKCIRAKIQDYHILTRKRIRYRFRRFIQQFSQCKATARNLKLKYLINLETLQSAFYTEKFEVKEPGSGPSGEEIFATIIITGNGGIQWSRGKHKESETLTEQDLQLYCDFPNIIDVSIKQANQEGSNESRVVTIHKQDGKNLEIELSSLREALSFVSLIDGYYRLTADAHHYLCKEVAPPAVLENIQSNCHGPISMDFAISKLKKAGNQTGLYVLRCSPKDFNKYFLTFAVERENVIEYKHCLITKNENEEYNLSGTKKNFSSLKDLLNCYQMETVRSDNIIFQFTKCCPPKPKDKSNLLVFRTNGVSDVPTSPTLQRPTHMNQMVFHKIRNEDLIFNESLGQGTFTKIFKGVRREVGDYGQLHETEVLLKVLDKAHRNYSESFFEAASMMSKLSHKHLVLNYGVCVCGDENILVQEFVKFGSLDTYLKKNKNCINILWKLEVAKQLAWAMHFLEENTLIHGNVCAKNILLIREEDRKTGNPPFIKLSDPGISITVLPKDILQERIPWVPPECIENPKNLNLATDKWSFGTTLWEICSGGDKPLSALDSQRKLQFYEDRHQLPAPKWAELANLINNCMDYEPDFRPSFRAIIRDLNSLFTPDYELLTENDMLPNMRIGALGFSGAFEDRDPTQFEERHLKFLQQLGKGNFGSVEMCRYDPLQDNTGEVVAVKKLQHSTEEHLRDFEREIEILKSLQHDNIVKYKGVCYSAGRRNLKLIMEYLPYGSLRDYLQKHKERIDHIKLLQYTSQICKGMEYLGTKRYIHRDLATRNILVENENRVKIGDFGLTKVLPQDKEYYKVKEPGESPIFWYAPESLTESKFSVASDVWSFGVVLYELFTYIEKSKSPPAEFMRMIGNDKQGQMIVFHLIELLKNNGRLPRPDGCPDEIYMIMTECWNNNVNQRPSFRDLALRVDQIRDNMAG

Row | effect of a mutation on the interaction | Variant
1 | disrupting interaction | MTKARDQTHQEGCCGSLANYLTSAKFLLYLGHSLSTWGDRMWHFAVSVFLVELYGNSLLLTAVYGLVVAGSVLVLGAIIGDWVDKNARLKVAQTSLVVQNVSVILCGIILMMVFLHKNELLTMYHGWVLTVCYILIITIANIANLASTATAITIQRDWIVVVAGENRSRLADMNATIRRIDQLTNILAPMAVGQIMTFGSPVIGCGFISGWNLVSMCVEYFLLWKVYQKTPALAVKAALKVEESELKQLTSPKDTEPKPLEGTHLMGEKDSNIRELECEQEPTCASQMAEPFRTFRDGWVSYYNQPVFLAGMGLAFLYMTVLGFDYITTGYAYTQGLSGSILSILMGASAITGIMGTVAFTWLRRKCGLVRTGLFSGLAQLSCLILCVISVFMPGSPLDLSVSPFEDIRSRFVNVEPVSPTTKIPETVFTTEMHMSNMSNVHEMSTKPIPIVSVSLLFAGVIAARIGLWSFDLTVTQLLQENVIESERGIINGVQNSMNYLLDLLHFIMVILAPNPEAFGLLVLISVSFVAMGHLMYFRFAQKTLGNQIFVCGPDEKEVTDENQPNTSVV [C326Y]
